Results: patent publication US20240294632A1 (XL PROTEIN, published 2024)
Positions count from the first letter of the chain named.

Key:
[1] = target: T1, recombinant Galectin-3 carrying a C173T mutation and a C-terminal Strep-tag II (Homo sapiens (Human), UniProt P17931 2-250); test: SPR, PAS-Fab captured by MAb 1.1, Galectin-3 as analyte, single cycle kinetics, 1:1 Langmuir model
T1 construct: the wording would also allow that it is the Strep-tag II alone

APSA(200)-TrxA = target: T2, APSA(200)-TrxA; test: SPR, biotinylated antigen on CAPture chip, Fab as analyte, 1:1 model
T2 construct: Biotinylated and immobilised on a biotin CAPture chip; also called thioredoxinA-APSA(200)

P/A #1(200)-IL1Ra [2] = target: T3, P/A #1(200)-IL1Ra; test: as above
T3 construct: PASylated fusion protein produced in E. coli; Biotinylated for the SPR measurements with Fabs

APSA(200)-IL1Ra [3] = target: T4, APSA(200)-IL1Ra; test: ELISA, antigen coated, Fab titrated
T4 construct: Fusion protein produced in E. coli; Labelled with DIG-NHS in the MAb capture ELISA

P/A #1(600) polypeptide = target: T5, P/A #1(600) polypeptide; test: ELISA, antigen coated, Fab titrated
T5 chain: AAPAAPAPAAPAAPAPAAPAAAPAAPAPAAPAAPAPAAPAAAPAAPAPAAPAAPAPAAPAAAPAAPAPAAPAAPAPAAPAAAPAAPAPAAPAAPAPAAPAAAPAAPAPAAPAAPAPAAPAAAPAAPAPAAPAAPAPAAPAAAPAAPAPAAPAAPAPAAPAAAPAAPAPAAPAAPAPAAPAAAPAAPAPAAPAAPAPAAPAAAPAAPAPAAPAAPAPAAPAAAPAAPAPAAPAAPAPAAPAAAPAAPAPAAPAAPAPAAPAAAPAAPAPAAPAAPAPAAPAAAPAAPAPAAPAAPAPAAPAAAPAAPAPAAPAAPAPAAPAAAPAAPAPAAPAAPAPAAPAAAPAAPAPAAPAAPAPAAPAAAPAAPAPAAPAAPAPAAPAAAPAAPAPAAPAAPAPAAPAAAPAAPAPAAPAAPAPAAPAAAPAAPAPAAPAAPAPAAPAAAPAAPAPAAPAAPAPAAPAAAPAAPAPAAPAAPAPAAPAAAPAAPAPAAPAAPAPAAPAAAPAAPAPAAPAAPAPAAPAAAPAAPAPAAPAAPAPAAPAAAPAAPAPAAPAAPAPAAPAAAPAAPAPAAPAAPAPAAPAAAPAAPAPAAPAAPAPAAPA

PAS #1(600)-Leptin [4] = target: T6, PAS #1(600)-Leptin; test: ELISA, antigen coated, Fab titrated
T6 chain: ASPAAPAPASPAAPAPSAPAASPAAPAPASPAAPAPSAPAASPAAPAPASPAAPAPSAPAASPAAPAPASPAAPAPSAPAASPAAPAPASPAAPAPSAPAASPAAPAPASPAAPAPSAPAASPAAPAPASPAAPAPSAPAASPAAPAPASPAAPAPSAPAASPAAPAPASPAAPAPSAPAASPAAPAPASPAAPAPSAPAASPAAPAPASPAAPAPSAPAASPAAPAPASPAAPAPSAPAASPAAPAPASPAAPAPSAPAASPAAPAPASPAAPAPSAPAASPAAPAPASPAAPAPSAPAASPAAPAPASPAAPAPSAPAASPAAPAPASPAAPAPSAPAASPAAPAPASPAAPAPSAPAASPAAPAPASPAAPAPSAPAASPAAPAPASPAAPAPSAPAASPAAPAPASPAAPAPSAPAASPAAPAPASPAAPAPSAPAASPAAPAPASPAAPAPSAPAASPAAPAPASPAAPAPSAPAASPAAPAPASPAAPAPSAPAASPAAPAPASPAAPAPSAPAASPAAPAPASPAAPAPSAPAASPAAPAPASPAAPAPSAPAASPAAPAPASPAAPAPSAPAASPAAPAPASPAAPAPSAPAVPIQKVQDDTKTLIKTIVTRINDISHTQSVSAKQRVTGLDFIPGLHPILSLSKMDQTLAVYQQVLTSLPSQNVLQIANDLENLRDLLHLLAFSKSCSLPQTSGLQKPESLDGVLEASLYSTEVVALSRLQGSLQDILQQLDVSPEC

APSA(200)-IL1Ra [5] = target: T4, APSA(200)-IL1Ra; test: MAb capture ELISA, hybridoma supernatant on anti-mouse IgG Fc, DIG-labelled antigen titrated
hu4D5-P/A #1(200) = target: T7, hu4D5-P/A #1(200); test: MAb capture ELISA, hybridoma supernatant on anti-mouse IgG Fc, antigen titrated
T7 construct: Detected with anti-human kappa light chain antibody in the capture ELISA

hu4D5-PAS #1(200) = target: T8, hu4D5-PAS #1(200); test: as above
T8 construct: Detected with anti-human kappa light chain antibody in the capture ELISA

APSA(200)-IL1Ra [6] = target: T4, APSA(200)-IL1Ra; test: SPR, MAb from hybridoma supernatant captured by anti-mouse antibody, antigen as analyte, bivalent analyte model
P/A #1(200)-IL1Ra [7] = target: T3, P/A #1(200)-IL1Ra; test: as above
IL1Ra (Kineret/Anakinra) = target: T9, IL1Ra (Kineret/Anakinra) (UniProt P18510 26-177); test: western blot, hybridoma supernatant 1:2000
T9 construct: Commercial drug product; also called non-PASylated protein version
T9 sequence (P18510 26-177 limits assumed): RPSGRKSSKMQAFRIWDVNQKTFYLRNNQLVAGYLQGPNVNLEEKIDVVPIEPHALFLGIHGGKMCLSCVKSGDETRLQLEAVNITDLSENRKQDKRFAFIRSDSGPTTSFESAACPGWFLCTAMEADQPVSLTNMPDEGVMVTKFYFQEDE

PAS #1(200)-IL1Ra [8] = target: T10, PAS #1(200)-IL1Ra; test: SPR, biotinylated antigen on CAPture chip, Fab as analyte, 1:1 model
T10 construct: PASylated fusion protein produced in E. coli; Biotinylated for the SPR measurements with Fabs
T10 sequence (chain, as listed by the source limits assumed): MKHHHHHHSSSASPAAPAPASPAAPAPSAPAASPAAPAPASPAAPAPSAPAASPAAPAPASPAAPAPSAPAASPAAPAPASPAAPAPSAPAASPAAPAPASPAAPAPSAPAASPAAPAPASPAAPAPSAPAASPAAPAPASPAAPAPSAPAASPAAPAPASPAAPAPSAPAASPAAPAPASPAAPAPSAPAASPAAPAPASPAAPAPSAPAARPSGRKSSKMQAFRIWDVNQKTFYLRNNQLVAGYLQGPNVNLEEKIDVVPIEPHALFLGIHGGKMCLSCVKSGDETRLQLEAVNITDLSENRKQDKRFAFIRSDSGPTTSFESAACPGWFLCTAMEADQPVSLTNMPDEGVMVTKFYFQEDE

PAS #1(600)-Leptin [9] = target: T6, PAS #1(600)-Leptin; test: ELISA, Fab titrated on coated PAS#1(600)-Leptin
P/A #1 sequence = target: T11, P/A #1 sequence; test: ELISA and SPR with Fabs
T11 construct: in sentences on specificity it stands for P/A #1 polypeptides in general
T11 peptide: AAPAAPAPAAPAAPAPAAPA

IL1Ra-PAS#1(800) = test: ELISA, Fab titrated on IL1Ra-PAS#1(800) (x axis: Fab concentration)
Chain of IL1Ra-PAS#1(800) (chain, as listed by the source): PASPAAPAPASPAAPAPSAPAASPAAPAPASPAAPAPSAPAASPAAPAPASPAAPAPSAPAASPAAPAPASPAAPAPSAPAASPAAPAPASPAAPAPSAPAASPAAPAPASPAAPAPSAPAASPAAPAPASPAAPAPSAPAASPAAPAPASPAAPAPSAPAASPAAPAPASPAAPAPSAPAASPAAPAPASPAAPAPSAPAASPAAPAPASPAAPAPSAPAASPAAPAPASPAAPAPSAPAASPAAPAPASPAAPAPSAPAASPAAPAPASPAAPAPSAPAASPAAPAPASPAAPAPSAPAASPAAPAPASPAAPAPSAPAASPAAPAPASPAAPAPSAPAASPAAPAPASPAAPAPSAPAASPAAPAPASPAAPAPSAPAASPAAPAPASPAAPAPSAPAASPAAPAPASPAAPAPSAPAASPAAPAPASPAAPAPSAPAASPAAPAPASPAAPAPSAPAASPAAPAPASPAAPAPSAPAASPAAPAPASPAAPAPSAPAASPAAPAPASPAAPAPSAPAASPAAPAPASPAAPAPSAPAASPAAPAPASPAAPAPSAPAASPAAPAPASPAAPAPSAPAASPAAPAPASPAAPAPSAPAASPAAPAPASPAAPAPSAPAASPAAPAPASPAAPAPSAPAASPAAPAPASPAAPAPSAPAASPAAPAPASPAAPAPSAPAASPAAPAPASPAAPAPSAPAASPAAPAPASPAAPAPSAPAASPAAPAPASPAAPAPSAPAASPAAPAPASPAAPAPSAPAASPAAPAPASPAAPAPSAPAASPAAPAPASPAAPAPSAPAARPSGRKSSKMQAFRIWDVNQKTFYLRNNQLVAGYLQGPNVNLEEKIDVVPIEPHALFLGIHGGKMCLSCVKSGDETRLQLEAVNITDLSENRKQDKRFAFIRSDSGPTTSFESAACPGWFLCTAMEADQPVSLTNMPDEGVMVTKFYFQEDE

PAS #1(600)-Leptin [10] = target: T6, PAS #1(600)-Leptin; test: ELISA, Fab titrated on PAS#1(600)-Leptin (x axis: Fab concentration)
P/A#1(600)-GMCSF = test: ELISA, Fab titrated on P/A#1(600)-GMCSF (x axis: Fab concentration)
Chain of P/A#1(600)-GMCSF (fusion protein, as listed by the source): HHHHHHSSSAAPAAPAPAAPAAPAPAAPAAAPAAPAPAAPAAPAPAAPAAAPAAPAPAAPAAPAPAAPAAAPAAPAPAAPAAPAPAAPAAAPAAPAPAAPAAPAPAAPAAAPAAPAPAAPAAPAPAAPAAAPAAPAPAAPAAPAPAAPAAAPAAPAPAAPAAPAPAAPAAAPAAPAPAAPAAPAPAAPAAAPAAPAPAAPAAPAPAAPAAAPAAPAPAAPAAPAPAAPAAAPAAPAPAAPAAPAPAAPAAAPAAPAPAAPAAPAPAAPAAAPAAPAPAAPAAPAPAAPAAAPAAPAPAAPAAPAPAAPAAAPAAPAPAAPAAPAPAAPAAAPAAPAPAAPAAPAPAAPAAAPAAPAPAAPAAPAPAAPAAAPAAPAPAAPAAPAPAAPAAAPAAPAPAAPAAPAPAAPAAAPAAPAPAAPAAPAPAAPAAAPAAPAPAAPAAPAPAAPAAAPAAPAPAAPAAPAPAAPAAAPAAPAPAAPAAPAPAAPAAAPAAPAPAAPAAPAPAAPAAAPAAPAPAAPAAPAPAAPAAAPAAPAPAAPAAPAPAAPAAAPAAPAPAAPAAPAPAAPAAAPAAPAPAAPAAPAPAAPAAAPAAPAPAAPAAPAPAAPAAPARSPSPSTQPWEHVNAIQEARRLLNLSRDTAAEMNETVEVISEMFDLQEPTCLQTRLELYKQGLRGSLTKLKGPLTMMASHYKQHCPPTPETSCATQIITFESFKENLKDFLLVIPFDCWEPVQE

PAS #1(200)-IL1Ra [11] = target: T10, PAS #1(200)-IL1Ra; test: SPR, MAb from hybridoma supernatant captured by anti-mouse antibody, antigen as analyte, bivalent analyte model

T1 sequence (P17931 other isoform, or with tags, fused parts or gaps C173T C173T limits assumed): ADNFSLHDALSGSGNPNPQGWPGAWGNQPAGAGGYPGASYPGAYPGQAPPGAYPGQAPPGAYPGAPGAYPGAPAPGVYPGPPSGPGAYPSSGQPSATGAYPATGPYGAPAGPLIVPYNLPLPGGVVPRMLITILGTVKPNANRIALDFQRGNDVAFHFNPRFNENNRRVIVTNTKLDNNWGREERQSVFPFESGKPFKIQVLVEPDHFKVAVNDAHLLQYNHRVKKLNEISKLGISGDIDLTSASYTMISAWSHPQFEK

B1: anti-Galectin-PAS(200) Fab fragment (Fab)
chain 1: QIQLVQSGAEVKKPGESLKISCKVSGYTFTDYAIHWVRQMPGKGLKWMGWINTYTGKPIYADDFKGQVIISLDKSINTAYLQWSSLKASDTAIYYCARGTMMASLDYWGQGTTVTVSSASTKGPSVFPLAPSSKSTSGGTAALGCLVKDYFPEPVTVSWNSGALTSGVHTFPAVLQSSGLYSLSSVVTVPSSSLGTQTYICNVNHKPSNTKVDKKVEPKSCHHHHHH
chain 2: DVVMTQSPSSLSASVGDRVTITCKSSQSLVHSDGKTYLSWIQQKPGKAPKGLIYLVSKLDSGVPSRFSGSGSETDFTLTISSLQPEDSATYYCWQATHFPLTFGPGTKLEIKRTVAAPSVFIFPPSDEQLKSGTASVVCLLNNFYPREAKVQWKVDNALQSGNSQESVTEQDSKDSTYSLSSTLTLSKADYEKHKVYACEVTHQGLSSPVTKSFNRGECASPAAPAPASPAAPAPSAPAASPAAPAPASPAAPAPSAPAASPAAPAPASPAAPAPSAPAASPAAPAPASPAAPAPSAPAASPAAPAPASPAAPAPSAPAASPAAPAPASPAAPAPSAPAASPAAPAPASPAAPAPSAPAASPAAPAPASPAAPAPSAPAASPAAPAPASPAAPAPSAPAASPAAPAPASPAAPAPSAPAA
notes: also called PASylated humanized anti-Galectin Fab fragment; PAS-Fab
[1]
  Kd: 0.0038 nM
  koff: 3e-05 s⁻¹
  kon: 7.9e+06 M⁻¹ s⁻¹

B2: Fab fragment of Anti-PA(S) MAb 3.2 (Fab, V domains shown)
VH: QVQLQQSGAELVRPGASVKLSCKALGYTFTDYEMFWVKQTPVHGLECIGTIHPGSGGTAYNQKFKGKATLTADKSSSTAYMELSSLTSEDSAVYYCTRNDRGSWGQGTTLTVSS
VL: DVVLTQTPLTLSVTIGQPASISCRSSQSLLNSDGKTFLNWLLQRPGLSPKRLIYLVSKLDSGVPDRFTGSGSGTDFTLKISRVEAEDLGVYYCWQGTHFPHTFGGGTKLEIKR
notes: also called Anti-PA(S) MAb 3.2 Fab; anti-APSA antibody fragment
APSA(200)-TrxA
  Kd: 137 nM
P/A #1(200)-IL1Ra [2]
  Kd: 446 nM
APSA(200)-IL1Ra [3]
  Kd: 1.6 nM
P/A #1(600) polypeptide
  Kd: 48 nM
PAS #1(600)-Leptin [4]
  Kd: 311 nM

B3: Anti-PA(S) MAb 3.2 (antibody, V domains shown)
VH: B2 VH
VL: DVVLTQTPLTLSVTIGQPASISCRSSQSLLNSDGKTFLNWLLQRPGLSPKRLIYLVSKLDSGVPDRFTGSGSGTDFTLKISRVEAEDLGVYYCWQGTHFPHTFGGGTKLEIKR
notes: Mouse monoclonal IgG from hybridoma (culture supernatant)
APSA(200)-IL1Ra [5]
  Kd: 0.251 nM
hu4D5-P/A #1(200)
  Kd: 0.4 nM
hu4D5-PAS #1(200)
  Kd: 294 nM
APSA(200)-IL1Ra [6]
  Kd: 0.108 nM
P/A #1(200)-IL1Ra [7]
  Kd: 20 nM
IL1Ra (Kineret/Anakinra)
  binding result: no binding

B4: Fab fragment of Anti-PA(S) MAb 1.1 (Fab, V domains shown)
VH: QVQLKESGPGLVAPSQSLSITCTVSGFSLTGYGVNWVRQPPGKGLEWLGMIWGDGITDYNSALKSRLSISKDNSKSQVFLKMNSLQTDDTARYYCARDYYGRRYYAMDYWGQGTSVTVSS
VL: DIVLTQSPASLAVSLGQRATISCRASKSVSSSGYNYMFWYQQKPGQPPKLLIYLASNLESGVPDRFWGSGSGTDFTLNIHPVEEEDAATYYCQHSRELPLTFGAGTKLELKR
notes: flanking restriction sites were introduced for subcloning; also called Anti-PA(S) MAb 1.1 Fab; anti-PAS #1 Fab
PAS #1(200)-IL1Ra [8]
  Kd: 8800 nM
PAS #1(600)-Leptin [9]
  EC50 (read off the curve): ~10 nM
PAS #1(600)-Leptin [4]
  Kd: 23 nM
P/A #1 sequence
  binding result: no binding

B5: Fab fragment of Anti-PA(S) MAb 2.1 (Fab, V domains shown)
VH: QVTLKESGPGILQPSQTLSLTCSFSGFSLSTYDMGVGWIRQPSGKGLEWLANIWWNDNKYYNSALKSRLTISKDTSNNQVFLKISSVDATDTATYYCAQMRDNYGVWFAFWGQGTLVTVSA
VL: DIVMSQSPSSLAVSVGEKVTMSCKSSQSLFYSNREKNYLAWYQQKPGQSPKLLIYWASTRESGVPDRFTGSGSGTDFTLTISNVKAEDLAVYYCQQYYNYPTFGAGTKLELKR
notes: also called Anti-PA(S) MAb 2.1 Fab; anti-P/A #1 Fab
PAS #1(200)-IL1Ra [8]
  Kd: 4.4 nM
P/A #1(200)-IL1Ra [2]
  Kd: 648 nM
IL1Ra-PAS#1(800)
  EC50 (read off the curve): ~2 nM
PAS #1(600)-Leptin [10]
  EC50 (read off the curve): ~2 nM
P/A#1(600)-GMCSF
  EC50 (read off the curve): ~1 nM
P/A #1(600) polypeptide
  Kd: 2 nM
PAS #1(600)-Leptin [4]
  Kd: 2.2 nM

B6: Fab fragment of Anti-PA(S) MAb 2.2 (Fab, V domains shown)
VH: QVTLKESGPGILQPSQTLSLTCSFSGFSLNTYGMGVGWIRQPSGKGLEWLANIWWTDDKYYNSVLKSRLTISKDTFNNQVFLKISSVDTADTATYYCAQLAYHDNPWFAYWGQGTLVTVSA
VL: B5 VL with M21L, F30L, R34N, E35Q, N83S, A105G, L111I
notes: also called Anti-PA(S) MAb 2.2 Fab; anti-P/A #1 MAb 2.2 Fab
P/A #1(200)-IL1Ra [2]
  Kd: 7000 nM
P/A #1(600) polypeptide
  Kd: 8 nM

B7: Anti-PA(S) MAb 2.2 (antibody, V domains shown)
VH: B6 VH
VL: B5 VL with M21L, F30L, R34N, E35Q, N83S, A105G, L111I
notes: Mouse monoclonal IgG from hybridoma (culture supernatant); also called 3F3E2
hu4D5-P/A #1(200)
  Kd: 69 nM
PAS #1(200)-IL1Ra [11]
  Kd: 22 nM
P/A #1(200)-IL1Ra [7]
  Kd: 1.1 nM
IL1Ra (Kineret/Anakinra)
  binding result: no binding
